The assay addresses T1, Orexin 2 Receptor (Homo sapiens, UniProt O43614).
T1 construct: host or cells: CHO cells co-expressing aequorin (CHO-Aeq-OX2-A2)
T1 sequence (O43614 1-444): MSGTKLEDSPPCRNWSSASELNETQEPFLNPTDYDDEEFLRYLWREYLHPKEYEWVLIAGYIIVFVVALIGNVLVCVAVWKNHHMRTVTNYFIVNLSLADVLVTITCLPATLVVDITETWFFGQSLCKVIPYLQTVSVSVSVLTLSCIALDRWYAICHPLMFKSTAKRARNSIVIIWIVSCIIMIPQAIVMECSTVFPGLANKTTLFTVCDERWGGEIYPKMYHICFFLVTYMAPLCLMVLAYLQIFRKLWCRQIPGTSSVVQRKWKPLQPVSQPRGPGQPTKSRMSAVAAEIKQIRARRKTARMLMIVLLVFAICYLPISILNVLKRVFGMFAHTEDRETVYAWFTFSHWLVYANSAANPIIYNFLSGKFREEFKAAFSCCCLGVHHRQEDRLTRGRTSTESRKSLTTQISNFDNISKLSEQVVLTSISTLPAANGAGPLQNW
As to the kind of experiment: Aequorin luminescence agonist assay in CHO-Aeq-OX2-A2 cells on NorthStar. The format is cell-based. The conditions noted are these: coelenterazine h +/- 0.6 μM BAPTA-AM 4 hours, light integrated 20 seconds, unchanged in the presence of BAPTA-AM, read-out: reported EC50 for Orexin B. The method, then:
CHO-Aeq-OX2-A2 cells (Euroscreen) were loaded with coelenterazine h+/−0.6 μM BAPTA-AM for 4 hours. The peptide agonist Orexin B was injected into the wells, and the emitted light was integrated for 20 seconds on the NorthStar™.

Usually EC50 stands for the concentration giving half of the maximal effect.

As to Orexin B, the EC50 was determined as 0.75 nM.

Values taken from patent publication US8865473B2, “Luminescence detecting apparatuses and methods” (Applied Biosystems, LLC, priority 1999, dated 2014).
